Test results taken from patent publication US20150050278A1 (US Dept. of Health and Human Services, published 2015).

How the values were obtained:
[1] = target: T1, human neonatal Fc receptor (FcRn), soluble (human, UniProt P55899 24-297; P61769 21-119, limits assumed); experiment: ELISA on coated human FcRn at pH 6.0, OD405
T1 construct: also called human FcRn; human single-chain soluble FcRn
Method: Antigens were coating on ELISA plate wells at 50 ng per well in PBS overnight at 4° C., blocked with protein-free blocking buffer for 1 h at 37° C. Threefold serially diluted protein was added and incubated at 37° C. for 2 h. The plates were washed with PBST, and HRP-conjugated anti-Fc antibody in PBS was incubated with wells for 1 h at 37° C. After extensive washes with PBST, the binding was detected with the addition of ABTS substrate, and signals were read at 405 nm. For FcRn binding test at pH 6.0, all proteins were prepared in PBS with pH adjusted to 6.0 by HCl, and PBST with pH 6.0 was used for washing the wells.

[2] = target: T1, human neonatal Fc receptor (FcRn), …; experiment: SPR (BIAcore X100), human FcRn immobilised on CM5 chip, pH 6.0; SPR (BIAcore X100), FcRn on CM5 chip, pH 6.0
Method: The interaction of monomeric Fc with immobilized FcRn was monitored by SPR detection using a BIAcore X100 instrument (GE Healthcare). Purified human FcRn was diluted in 10 mM Na-acetate buffer, pH 5.0, and immobilized on a CM5 biosensor chip using amine coupling kit. The running buffer was PBS with 0.005% Tween 20 for testing binding at pH 7.4, or PBS pH 6.0 with 0.005% Tween 20 for binding at pH 6.0. […] After 10 min of dissociation, the chip was regenerated with pH 8.0 buffer (100 mM Tris, pH 8.0, 50 mM NaCl).
Human FcRn was immobilized on a CM5 bio sensor chip followed by analysis of the interaction using BIAcore X100. The binding was performed under pH 6.0 and pH 7.4, respectively, and the chip was regenerated with pH 8.0 buffer.

[3] = target: T1, human neonatal Fc receptor (FcRn), …; experiment: SPR (BIAcore), human FcRn immobilised, pH 6.0; concentrations not given
[4] = target: T1, human neonatal Fc receptor (FcRn), …; experiment: SPR, human FcRn immobilised, pH 6.0; pH 6.0
[5] = target: T1, human neonatal Fc receptor (FcRn), …; experiment: SPR (BIAcore), human FcRn immobilised, pH 6.0; SPR (BIAcore), FcRn on the chip, pH 6.0
Method: The interaction of monomeric Fc with immobilized FcRn was monitored by SPR detection using a BIAcore X100 instrument (GE Healthcare). Purified human FcRn was diluted in 10 mM Na-acetate buffer, pH 5.0, and immobilized on a CM5 biosensor chip using amine coupling kit. The running buffer was PBS with 0.005% Tween 20 for testing binding at pH 7.4, or PBS pH 6.0 with 0.005% Tween 20 for binding at pH 6.0. […] After 10 min of dissociation, the chip was regenerated with pH 8.0 buffer (100 mM Tris, pH 8.0, 50 mM NaCl). Another test with a protein concentration of 500 nM was repeated to monitor the regeneration efficiency.
It was determined whether mCH3 could bind FcRn in a pH-dependent manner. Surface plasmon resonance (SPR) binding was performed using a BIAcore instrument with human FcRn immobilized on the chip, as described previously. The measurements were carried out under pH 6.0 or pH 7.4, and the chips were regenerated after binding by injection of a pH 8.0 buffer.

T1 sequence (P55899 24-297 limits assumed, chain 1 of 2): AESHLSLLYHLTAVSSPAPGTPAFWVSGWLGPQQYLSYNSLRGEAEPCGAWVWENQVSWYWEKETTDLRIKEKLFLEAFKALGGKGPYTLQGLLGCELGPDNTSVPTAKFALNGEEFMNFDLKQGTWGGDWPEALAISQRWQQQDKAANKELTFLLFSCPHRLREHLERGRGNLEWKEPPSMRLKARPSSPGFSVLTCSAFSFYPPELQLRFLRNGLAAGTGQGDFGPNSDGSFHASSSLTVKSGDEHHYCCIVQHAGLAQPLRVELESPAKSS
T1 sequence (P61769 21-119 limits assumed, chain 2 of 2): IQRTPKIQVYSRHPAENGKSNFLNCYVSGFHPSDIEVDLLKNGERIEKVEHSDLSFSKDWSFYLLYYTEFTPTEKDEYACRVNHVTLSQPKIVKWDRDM

| Binder | EC50 (read off the curve) [1] [nM] | Kd [2] [nM] | also measured |
| --- | --- | --- | --- |
| mFc.1 (designed binder, also called monomeric Fc mFc.1) APELLGGPSVFLFPPKPKDTLMISRTPEVTCVVVDVSHEDPEVKFNWYVDGVEVHNAKTKPREEQYNSTYRVVSVLTVLHQDWLNGKEYKCKVSNKALPAPIEKTISKAKGQPREPQVYTYPPSRDELTKNQVSLYCAVKGFYPSDIAVEWESNGQPENNYKTTRPVLDSDGSFRLMSALTVDKSRWQQGNVFSCSVMHEALHNHYTQKSLSLSPGK | ~100 | 204 | – |
| mFc.67 (designed binder, also called monomeric Fc mFc.67; mFc.67 monomer) APELLGGPSVFLFPPKPKDTLMISRTPEVTCVVVDVSHEDPEVKFNWYVDGVEVHNAKTKPREEQYNSTYRVVSVLTVLHQDWLNGKEYKCKVSNKALPAPIEKTISKAKGQPREPQVYTKPPSRDELTKNQVSLSCLVKGFYPSDIAVEWESNGQPENNYKTTVPVLDSDGSFRLASYLTVDKSRWQQGNVFSCSVMHEALHNHYTQKSLSLSPGK | – | 111 | – |
| mFc.23 (designed binder, also called monomeric Fc mFc.23) APELLGGPSVFLFPPKPKDTLMISRTPEVTCVVVDVSHEDPEVKFNWYVDGVEVHNAKTKPREEQYNSTYRVVSVLTVLHQDWLNGKEYKCKVSNKALPAPIEKTISKAKGQPREPQVYTSPPSRDELTKNQVSLRCHVKGFYPSDIAVEWESNGQPENNYKTTKPVLDSDGSFELKSALTVDKSRWQQGNVFSCSVMHEALHNHYTQKSLSLSPGK | ~60 | 59 | – |
| wild-type CH3 domain (other, also called isolated CH3; Fc CH3 domain) PREPQVYTLPPSRDELTKNQVSLTCLVKGFYPSDIAVEWESNGQPENNYKTTPPVLDSDGSFFLYSKLTVDKSRWQQGNVFSCSVMHEALHNHYTQKSLSLSPGK | – | – | binding result [3]: no binding |
| mCH3 343C/431C mutant (mCH3cc) (designed binder, additional disulfide bond between Cys343 and Cys431, also called engineered mCH3) CREPQVYTSPPSRDELTKNQVSLRCHVKGFYPSDIAVEWESNGQPENNYKTTKPVLDSDGSFFLYSKLTVDKSRWQQGNVFSCSVMHECLHNHYTQKSLSLSPGK | – | – | Kd [4]: 1080 nM |
| monomeric CH3 domain (mCH3) (designed binder) PREPQVYTSPPSRDELTKNQVSLRCHVKGFYPSDIAVEWESNGQPENNYKTTKPVLDSDGSFFLYSKLTVDKSRWQQGNVFSCSVMHEALHNHYTQKSLSLSPGK | – | – | Kd [5]: 940 nM |
